The text below walks through data of article doi:10.1101/2024.12.09.627393 (bioRxiv, 2024).

The assay concerns the target T1, histone H4K5acK8acK12acK16ac residues 1–23 peptide (dCypher) (UniProt P62805 2-24, acetyl-lysine at 5, 8, 12 and 16).
T1 construct: histone H4 residues 1-23; also called H4Tetra^ac
Nature of the assay: AlphaScreen or HTRF; dCypher: GST-CECR2-BRD titrated against histone peptides (100 nM); glutathione Acceptor and streptavidin Donor beads; 50 mM Tris pH 7.5, 50 mM NaCl, 0.01% Tween-20, 0.01% BSA, 1 mM TCEP, 0.0004% Poly-L-Lysine; room temperature; relative EC50 (EC50^rel). Conditions: both partners purified. (Bead proximity is the source of the signal in Alpha formats.)

By EC50 is commonly meant the midpoint of the concentration-response curve. A high value points to a need for much substance.

B1: GST-CECR2-BRD (GST tag retained, for dCypher assays) (domain or fragment)
chain: not shown
notes: human CECR2 bromodomain, amino acids 424-538 of UniProt Q9BXF3-1, codon optimized for E. coli, in pGEX-6P-1; PreScission Protease site between GST and the bromodomain; source: E. coli BL21(DE3) pLysS, purified (glutathione agarose, eluted with reduced glutathione, dialysed); not shown: GST, N-terminal, kept
Turning to B1, the concentration for a half-maximal effect (EC50) stood at 7.2 nM.
